This is an account of results in patent US20220204627A1 (WILLIAM ROBERT ARATHOON LIVING TRUST DATED AUGUST 29 2016, published 2022).

The target of test [1] is T1, human CD47-Fc fusion protein (R&D systems) (human, UniProt Q08722 19-141).
T1 construct: Bought (R&D systems); also called Fc-tagged CD47; not shown: Fc part of the bought fusion protein
Put plainly: ELISA, binding to CD47. Further details: Bmax: unit not given here. (An ELISA detects its analyte on a solid surface through an enzyme-linked reagent.)

The target in test [2] is T2, human P Glycoprotein (Pgp) / Multidrug resistance protein 1 (MDR1), gene ABCB1, on cells (human, UniProt P08183 1-1280). Description: cell-based or functional assay.
The target of test [3] is T2, human P Glycoprotein (Pgp) / Multidrug …. Put plainly: FACS on 293T-B1OX cells (overexpressing MDR1).
The target is the same in test [4]. Description: flow cytometry on 293T cells stably expressing human ABCB1 (293T_ABCB1_OX). On the technique in general: In flow cytometry, cells or beads pass a laser one at a time.
Test [5] concerns the target T1, human CD47-Fc fusion protein (R&D …). Description: ELISA, binding to CD47; 15D3 HC with its own 15D3 LC (un-swapped control); ELISA.
Test [6] has as its target T3, EGFR on 293T cells overexpressing EGFR (UniProt P00533 25-1210, limits assumed).
T3 construct: whole, on cells
Description: FACS on 293T-EGFR OX cells.

Test [7] deals with T3, EGFR on 293T cells overexpressing EGFR. Description: FACS on 293T cells overexpressing EGFR.
The target of test [8] is T2, human P Glycoprotein (Pgp) / Multidrug …. Put plainly: flow cytometry on 293T cells stably expressing human ABCB1 (293T_ABCB1_OX; the cells also carry CD47).
For test [9], the target named is T1, human CD47-Fc fusion protein (R&D …). Put plainly: ELISA, plate coated with human CD47-Fc. On the set-up: Bmax: unit not given here.
Test [10] concerns the target T4, human CD47 on cells (human, UniProt Q08722 19-323).
T4 construct: also called KT14 (target name); leukocyte surface antigen CD47
Description: flow cytometry on human red blood cells (h408 RBC), Alexa Fluor 647 channel.

In test [11] the target is T5, cynomolgus CD47 on erythrocytes (cynomolgus, UniProt A0A5F8AK49 19-323 (rhesus entry)).
T5 construct: whole, on cells; also called cynomolgus RBCs
Put plainly: flow cytometry on cynomolgus red blood cells (cy807 RBC), Alexa Fluor 647 channel.

In test [12] the target is T4, human CD47 on cells. Description: flow cytometry on 293T_ABCB1_OX cells (anti-CD47 antibody; CD47 is endogenous on 293T cells); 293T_ABCB1_OX cells, endogenous CD47.

B1: anti-MDR1 antibody 15D3 (recombinant, human IgG1/Kappa) (antibody, V domains shown)
VH: EVKVVESGGVLVRPGGSLKLSCAASGFTFSRYTMSWVRQTPEKRLEWVATISSGGGNTYYPDSVKGRFTVSRDNAMSSLYLQMSSLRSEDTALYYCARYGAGDAWFAYWGQGTLVTVSA
VL: DVLMTQTPLSLPVSLGDQASISCRSSQSIVHSTGNTYLEWYLQKPGQSPKLLIYKVSNRFSGVPDRFSGSGSGTDFTLKISRLEAEDLGVYYCFQGSHFPRTFGGGTRLEIK
notes: also called 15D3/15D3
Usually EC50 stands for the concentration giving half of the maximal effect. As a reminder, the Kd is a measure of binding affinity in units of concentration. Turning to B1, the Bmax in test [1] was 3.2. Further, the “Vincristine IC50 (nM) on N6/ADR cells with antibody at 50 ug/mL” value in test [2] is 0.466 nM. For the same molecule, the half-maximal effective concentration (EC50) in test [3] amounted to 25.1 nM; in test [4], 14.6 nM. The Kd in [5] was 10.9 nM.

B2: anti-EGFR antibody necitumumab (antibody, human IgG1, kappa, V domains shown)
VH: QVQLQESGPGLVKPSQTLSLICTVSGGSISSGDYYWSWIRQPPGKGLEWIGYIYYSGSTDYNPSLKSRVTMSVDTSKNQFSLKVNSVTAADTAVYYCARVSIFGVGTFDYWGQGTLVTVSS
VL: EIVMTQSPATLSLSPGERATLSCRASQSVSSYLAWYQQKPGQAPRLLIYDASNRATGIPARFSGSGSGTDFTLTISSLEPEDFAVYYCHQYGSTPLTFGGGTKAEIKR
notes: Heavy chain copied as printed in T0103; also called KT3-2
Turning to B2, the EC50 came to 0.13 nM in [6] and 0.044 nM in test [7].

B3: Ab5 (15D3 HC-Hz1 DD hIgG1 / KT14 IgG1 KK / MRK16 VL-Hz1) (bispecific antibody, V domains shown)
VH 1: EVQLVESGGVVVQPGGSLRLSCAASGFTFSRYTMSWVRQAPGKGLEWVATISSGGGQTYYPDSVKGRFTVSRDNSKNSLYLQMNSLRTEDTALYYCARYGAGDAWFAYWGQGTLVTVSS
VH 2: QVQLVQSGAEVKKPGASVKVSCKASGYTFTNYNMHWVRQAPGQRLEWMGTIYPGNDDTSYNQKFKDRVTITADTSASTAYMELSSLRSEDTAVYYCARGGYRAMDYWGQGTLVTVSS
VL: DIVMTQTPLSSPVTLGQPASISCRSSQSIVHSTGQTYLEWYQQRPGQPPRLLIYKISNRFSGVPDRFSGSGAGTDFTLKISRVEAEDVGVYYCFQASHFPRTFGQGTKLEIK
notes: Human IgG1 heavy chains with DD on the 15D3 arm and KK on the KT14 (5F9) arm; kappa light chain
In the case of B3, in test [2], the “Vincristine IC50 (nM) on N6/ADR cells with antibody at 50 ug/mL” value came out at 0.0589 nM. In addition, the EC50 in [8] was 137 nM.

B4: anti-CD47 antibody 5F9 (antibody, human IgG1, V domains shown)
VH: QVQLVQSGAEVKKPGASVKVSCKASGYTFTNYNMHWVRQAPGQRLEWMGTIYPGNDDTSYNQKFKDRVTITADTSASTAYMELSSLRSEDTAVYYCARGGYRAMDYWGQGTLVTVSS
VL: DIVMTQSPLSLPVTPGEPASISCRSSQSIVYSNGNTYLGWYLQKPGQSPQLLIYKVSNRFSGVPDRFSGSGSGTDFTLKISRVEADVGVYYCFQGSHVPYTFGQGTKLEIK
notes: Variable regions cloned on human IgG1 / human kappa constant regions; also called 5F9/5F9; KT14
In test [9], B4 had a Bmax of 2.78 and a Kd of 1.97 pM. Besides, the “R4 (percent of red blood cells in the positive gate R4)” value in test [10] is 99.9%. Besides, in [11], the “R4 (percent of red blood cells in the positive gate R4)” value was 99.8%. The molecule further had an EC50 in test [12] of 0.3 nM.
